# Source: patent US20160228506A1, “Compositions and Formulations for Prevention and Reduction of Tumorigenesis, Cancer Cell Proliferation and Invasion, and Methods of Production and Use Thereof in Cancer Treatment” (PRONUTRIA, INC., priority 2013, published 2016)
# Experiment: Intact half-life during simulated gastric fluid (SGF) digestion
# Conditions: SGF pH 1.5, pepsin:polypeptide 1:20 w/w, 37° C.; intact protein
# Description: In this experiment the nutritive polypeptide was exposed to a series of proteases that are active in the stomach (pepsin) and intestine (trypsin and chymotrypsin), and the presence of intact protein was measured over time. Specifically, the nutritive polypeptide was first treated at a concentration of 2 g/L with simulated gastric fluid (SGF) (0.03 M NaCl, titrated with HCl to pH 1.5 with a final pepsin:polypeptide ratio of 1:20 w/w) at 37° C. Time points were sampled from the reaction and quenched by addition of 0.2 M Na2CO3. […] Time points were sampled from the reaction and quenched by addition of Trypsin/Chymotrypsin Inhibitor (Sigma) solution until 240 min.
# Time point samples were analyzed for intact protein by chip electrophoresis, polyacrylamide gel electrophoresis, or western blot. For chip electrophoresis (Labchip GX II), samples were analyzed using a HT Low MW Protein Express LabChip® Kit (following the manufacturer's protocol). A protein ladder was loaded every 12 samples for molecular weight determination (kDa) and quantification. For polyacrylamide gel electrophoresis, samples (1 μg) were separated on a NuPAGE® Novex® Bis-Tris Precast gel (Life Technologies) according to the manufacturer's protocol. The gel was stained using SimplyBlue™ SafeStain (Invitrogen) and imaged using a Chemidoc XRS+ (BioRad) or transferred onto nitrocellulose membranes using the iBlot® Dry Blotting System (Life Technologies) and iBlot® Western Detection Kit (Life Technologies) according to the manufacturer's protocol. Proteins were detected by blotting with Anti-His [C-term]-HRP antibody diluted 3:5000 in Blok™-PO Blocking Buffer using the SNAP I.d.® Protein Detection System (Millipore) according to the manufacturer's protocol. Blots were treated with Luminata Classico Western HRP Substrate (Millipore) according to the manufacturer's protocol and imaged using chemiluminescent detection on the Molecular Imager® Gel Doc™ XR+ System (Bio-Rad). Quantification of intact protein was determined by densitometry using ImageLab (BioRad). For all analysis methods the relative concentration of the polypeptide at each time point (if detected) was plotted overtime and fit to an exponential curve to calculate the intact half-life.
# Specifically, the t=0 (enzyme-free control) and t=2 min samples from the SGF digest were analyzed for intact protein as described by chip electrophoresis, SDS-PAGE, western blot, and/or LC-MS/MS. Relative quantities of polypeptides at each time point were determined and the percentage of intact protein remaining at t=2 was determined. Intact half-life values determined using this method are reported as greater or less than 2 min to indicate more or less than 50% of the protein remained intact at t=2 min, respectively.
row,Molecule,SGF Half-life (t½) [s]
1,"SEQID-00338 (BS): nutritive polypeptide (protein, listed as Saccharomyces cerevisiae, source: /note=""strain ATCC 204508 / S288c"") MSSSESIRMVLIGPPGAGKGTQAPNLQERFHAAHLATGDMLRSQIAKGTQLGLEAKKIMDQGGLVSDDIMVNMIKDELTNNPACKNGFILDGFPRTIPQAEKLDQMLKEQGTPLEKAIELKVDDELLVARITGRLIHPASGRSYHKIFNPPKEDMKDDVTGEALVQRSDDNADALKKRLAAYHAQTEPIVDFYKKTGIWAGVDASQPPATVWADILNKLGKD",12
2,"SEQID-00343: nutritive polypeptide (protein, Glycine max) MATLIAPSHHSRVEDAEALRNAFKGWGADDKAIIAILGHRNVHQRQEIRKAYEEIYQEDLIKRLESEISGDFERAMYRWMLQPADRDAVLVNVAIKNGTKDYHVIAEIACVLSAEELLAVRRAYHRRYKCSLEEDVAANTTGNLRQLLVGLVTSYRYEGDEINVKFSQTEANVLHESVKEKKGNSEEVIRILTTRSKTQLVATFNRYRDEHGISISKKLLDQTSDDFHKVLHTAIRCINDHKKYYEKVLRNAVKKFGTDEDGLSRVIVTRAEKDLKDIKELYYKRNSVHLEDEVSKETSGDYKKFLLTLLGK",18
3,"SEQID-00284: nutritive polypeptide (protein, listed as Arabidopsis thaliana) KLEHGVHVVSGTPGRVCDMIKRRSLRTRAIKLLILDESDEMLSRGFKDQIYDVYRYLPPDLQVCLVSATLPHEILEMTSKFMTEPVKILVKRDELTLEGIKQFFVAVEKEEWK",60
4,"SEQID-00345: nutritive polypeptide (protein, Arthrospira platensis NIES-39) MNTLDLQNQRILVTGGAGFLGKQVIDQLLKAGAKSENISVPRSHNCDLRNLEACQQAAKGQDIIIHLAAHVGGIGLNQVKPAELFYDNLMMGTQLIHSAYQAGVKKFVCVGTICAYPKFTPVPFQEDDLWNGYPEETNAPYGIAKKALLVQLQAYRQQYGFNGIYLLPVNLYGPEDNFNPKSSHVIPALVRKVYEAQQRGDKQLPVWGDGSPSREFLYSTDAARGIVMATQHYDEPDPVNLGTNSEVTIRDLVELICELMEFQGEIVWETDKPNGQPRRCLDTNRAKERFGFVAEVEFRQGLKNTIDWYRQNPDL",48
5,"SEQID-00298 (AN): nutritive polypeptide naturally produced in Cow (protein, listed as Bos taurus) MGLSDGEWQLVLNAWGKVEADVAGHGQEVLIRLFTGHPETLEKFDKFKHLKTEAEMKASEDLKKHGNTVLTALGGILKKKGHHEAEVKHLAESHANKHKIPVKYLEFISDAIIHVLHAKHPSDFGADAQAAMSKALELFRNDMAAQYKVLGFHG",18
6,"SEQID-00001: nutritive polypeptide (protein, listed as Gallus gallus) MGSIGAASMEFCFDVFKELKVHHANENIFYCPIAIMSALAMVYLGAKDSTRTQINKVVRFDKLPGFGDSIEAQCGTSVNVHSSLRDILNQITKPNDVYSFSLASRLYAEERYPILPEYLQCVKELYRGGLEPINFQTAADQARELINSWVESQTNGIIRNVLQPSSVDSQTAMVLVNAIVFKGLWEKAFKDEDTQAMPFRVTEQESKPVQMMYQIGLFRVASMASEKMKILELPFASGTMSMLVLLPDEVSGLEQLESIINFEKLTEWTSSNVMEERKIKVYLPRMKMEEKYNLTSVLMAMGITDVFSSSANLSGISSAESLKISQAVHAAHAEINEAGREVVGSAEAGVDAASVSEEFRADHPFLFCIKHIATNAVLFFGRCVSP",300
